Assay [1] has as its target T1, human nerve growth factor (human, UniProt P01138 122-241).
T1 construct: Immobilised on CM5 chips for BIAcore, soluble in neuron survival assays; also called human NGF; hNGF
Kind of assay: BIAcore SPR screen, Fab over immobilised human NGF; KD calculated from koff with kon 4e4 M-1s-1. As to the method:
(§1) A screening BIAcore assay was optimized to determine the affinity of Fab clones from libraries. Supernatants of small culture lysates were injected at […] for 2 min. Dissociation times of 10 to 15 minutes were used for determination of a single exponential dissociation rate (koff) using BIAevaluation software. […] Clones showing improved (slower) koff values were expressed at large scale and full kinetic parameters, kₒₙ and koff, were determined on purified protein.
(§2) 20-80 clones from each small library were screened using BIAcore analysis as described herein. Samples were simultaneously analyzed by BIAcore for binding affinity to NGF in one channel of the BIAcore chip and for presence of Fab by binding to a penta-histag antibody in another channel of the sensor chip, to detect the his tag at the C terminus of the heavy chain. Clones that expressed protein were classified as having the same affinity, worse affinity, better affinity or no binding, using koff to classify: The results of this analysis are shown in Table 5.

The target in assay [2] is T1, human nerve growth factor. Kind of assay: BIAcore SPR screen, Fab over immobilised human NGF. As to the method: as §1, §2

For 14 molecules, Kd and koff results are on record in patent publication US20170088610A1 (RINAT NEUROSCIENCE, published 2017).

T1 sequence (P01138 122-241 limits assumed): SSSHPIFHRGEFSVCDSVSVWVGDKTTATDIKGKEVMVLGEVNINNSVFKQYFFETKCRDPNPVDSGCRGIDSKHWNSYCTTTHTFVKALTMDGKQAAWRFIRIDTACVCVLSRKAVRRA

B1: 8L2-6D5 Fab with CDR H3 mutation D109G (Fab, V domains shown)
VH: QVQLQESGPGLVKPSETLSLTCTVSGFSLIGYDINWIRQPPGKGLEWIGMIWGDGTTDYNSALKSRVTISKDTSKNQFSLKLSSVTAADTAVYYCARGGYYYGTSYYFGYWGQGTLVTVS
VL: DIQMTQSPSSLSASVGDRVTITCRASQDISNHLNWYQQKPGKAPKLLIYYISRFHSGVPSRFSGSGSGTDFTFTISSLQPEDIATYYCQQSKTLPYTFGQGTKLEIKR
notes: See note of m8
In the case of B1, the Kd in assay [1] was 25 nM. This molecule displayed a koff in assay [2] of 0.001 s⁻¹.

B2: 8L2-6D5 Fab with CDR H3 mutation Y100L (Fab, V domains shown)
VH: QVQLQESGPGLVKPSETLSLTCTVSGFSLIGYDINWIRQPPGKGLEWIGMIWGDGTTDYNSALKSRVTISKDTSKNQFSLKLSSVTAADTAVYYCARGGLYYGTSYYFDYWGQGTLVTVS
VL: DIQMTQSPSSLSASVGDRVTITCRASQDISNHLNWYQQKPGKAPKLLIYYISRFHSGVPSRFSGSGSGTDFTFTISSLQPEDIATYYCQQSKTLPYTFGQGTKLEIKR
notes: See note of m8
Consider B2, for which the dissociation constant (Kd) in assay [1] is 30 nM. Also, the off-rate constant (koff) in assay [2] was determined as 0.0012 s⁻¹.

B3: 8L2-6D5 Fab with CDR H3 mutation G103A (Fab, V domains shown)
VH: QVQLQESGPGLVKPSETLSLTCTVSGFSLIGYDINWIRQPPGKGLEWIGMIWGDGTTDYNSALKSRVTISKDTSKNQFSLKLSSVTAADTAVYYCARGGYYYATSYYFDYWGQGTLVTVS
VL: DIQMTQSPSSLSASVGDRVTITCRASQDISNHLNWYQQKPGKAPKLLIYYISRFHSGVPSRFSGSGSGTDFTFTISSLQPEDIATYYCQQSKTLPYTFGQGTKLEIKR
notes: A103 is the E3 residue, so it is kept; See note of m8
On to B3, for which the Kd in assay [1] was 4 nM. Besides, in assay [2], the koff was 0.00016 s⁻¹.

B4: 8L2-6D5 Fab with CDR H3 mutation D109N (Fab, V domains shown)
VH: QVQLQESGPGLVKPSETLSLTCTVSGFSLIGYDINWIRQPPGKGLEWIGMIWGDGTTDYNSALKSRVTISKDTSKNQFSLKLSSVTAADTAVYYCARGGYYYGTSYYFNYWGQGTLVTVS
VL: DIQMTQSPSSLSASVGDRVTITCRASQDISNHLNWYQQKPGKAPKLLIYYISRFHSGVPSRFSGSGSGTDFTFTISSLQPEDIATYYCQQSKTLPYTFGQGTKLEIKR
notes: See note of m8
B4: in assay [1], the Kd is 37 nM. The molecule further came in with a koff in assay [2] of 0.0015 s⁻¹.

B5: 8L2-6D5 Fab with CDR H3 mutation Y106M (Fab, V domains shown)
VH: QVQLQESGPGLVKPSETLSLTCTVSGFSLIGYDINWIRQPPGKGLEWIGMIWGDGTTDYNSALKSRVTISKDTSKNQFSLKLSSVTAADTAVYYCARGGYYYGTSMYFDYWGQGTLVTVS
VL: DIQMTQSPSSLSASVGDRVTITCRASQDISNHLNWYQQKPGKAPKLLIYYISRFHSGVPSRFSGSGSGTDFTFTISSLQPEDIATYYCQQSKTLPYTFGQGTKLEIKR
notes: See note of m8
For B5, the Kd in assay [1] was 67 nM. The koff in assay [2] turned out to be 0.0027 s⁻¹.

B6: 8L2-6D5 Fab with CDR H3 mutation Y106T (Fab, V domains shown)
VH: QVQLQESGPGLVKPSETLSLTCTVSGFSLIGYDINWIRQPPGKGLEWIGMIWGDGTTDYNSALKSRVTISKDTSKNQFSLKLSSVTAADTAVYYCARGGYYYGTSTYFDYWGQGTLVTVS
VL: DIQMTQSPSSLSASVGDRVTITCRASQDISNHLNWYQQKPGKAPKLLIYYISRFHSGVPSRFSGSGSGTDFTFTISSLQPEDIATYYCQQSKTLPYTFGQGTKLEIKR
notes: See note of m8
B6: in assay [1], the Kd was 50 nM. In addition, the koff in assay [2] turned out to be 0.002 s⁻¹.

B7: 8L2-6D5 Fab with CDR H3 mutation Y101W (Fab, V domains shown)
VH: QVQLQESGPGLVKPSETLSLTCTVSGFSLIGYDINWIRQPPGKGLEWIGMIWGDGTTDYNSALKSRVTISKDTSKNQFSLKLSSVTAADTAVYYCARGGYWYGTSYYFDYWGQGTLVTVS
VL: DIQMTQSPSSLSASVGDRVTITCRASQDISNHLNWYQQKPGKAPKLLIYYISRFHSGVPSRFSGSGSGTDFTFTISSLQPEDIATYYCQQSKTLPYTFGQGTKLEIKR
notes: W101 is the E3 residue, so it is kept; See note of m8
Regarding B7, the Kd in assay [1] is 14 nM. Besides, the koff in assay [2] amounted to 0.00056 s⁻¹.

B8: 8L2-6D5 Fab with CDR H3 mutation F108W (Fab, V domains shown)
VH: QVQLQESGPGLVKPSETLSLTCTVSGFSLIGYDINWIRQPPGKGLEWIGMIWGDGTTDYNSALKSRVTISKDTSKNQFSLKLSSVTAADTAVYYCARGGYYYGTSYYWDYWGQGTLVTVS
VL: DIQMTQSPSSLSASVGDRVTITCRASQDISNHLNWYQQKPGKAPKLLIYYISRFHSGVPSRFSGSGSGTDFTFTISSLQPEDIATYYCQQSKTLPYTFGQGTKLEIKR
notes: See note of m8
Consider B8, for which the Kd in assay [1] was 30 nM. Also, the koff in assay [2] is 0.00122 s⁻¹.

B9: 8L2-6D5 Fab with CDR H3 mutation S105T (Fab, V domains shown)
VH: QVQLQESGPGLVKPSETLSLTCTVSGFSLIGYDINWIRQPPGKGLEWIGMIWGDGTTDYNSALKSRVTISKDTSKNQFSLKLSSVTAADTAVYYCARGGYYYGTTYYFDYWGQGTLVTVS
VL: DIQMTQSPSSLSASVGDRVTITCRASQDISNHLNWYQQKPGKAPKLLIYYISRFHSGVPSRFSGSGSGTDFTFTISSLQPEDIATYYCQQSKTLPYTFGQGTKLEIKR
notes: See note of m8
B9: the Kd in assay [1] is 16 nM. In assay [2], this molecule yielded a koff of 0.00064 s⁻¹.

B10: 8L2-6D5 Fab with CDR H3 mutation S105A (Fab, V domains shown)
VH: QVQLQESGPGLVKPSETLSLTCTVSGFSLIGYDINWIRQPPGKGLEWIGMIWGDGTTDYNSALKSRVTISKDTSKNQFSLKLSSVTAADTAVYYCARGGYYYGTAYYFDYWGQGTLVTVS
VL: DIQMTQSPSSLSASVGDRVTITCRASQDISNHLNWYQQKPGKAPKLLIYYISRFHSGVPSRFSGSGSGTDFTFTISSLQPEDIATYYCQQSKTLPYTFGQGTKLEIKR
notes: See note of m8
Consider B10, for which the Kd in assay [1] is 13 nM. The same molecule registered a koff in assay [2] of 0.00051 s⁻¹.

B11: 8L2-6D5 Fab with CDR H3 mutation Y100R (Fab, V domains shown)
VH: QVQLQESGPGLVKPSETLSLTCTVSGFSLIGYDINWIRQPPGKGLEWIGMIWGDGTTDYNSALKSRVTISKDTSKNQFSLKLSSVTAADTAVYYCARGGRYYGTSYYFDYWGQGTLVTVS
VL: DIQMTQSPSSLSASVGDRVTITCRASQDISNHLNWYQQKPGKAPKLLIYYISRFHSGVPSRFSGSGSGTDFTFTISSLQPEDIATYYCQQSKTLPYTFGQGTKLEIKR
notes: See note of m8
Turning to B11, the Kd in assay [1] is 27 nM. The koff in assay [2] came to 0.0011 s⁻¹.

B12: 8L2-6D5 Fab with CDR H3 mutation Y106R (Fab, V domains shown)
VH: QVQLQESGPGLVKPSETLSLTCTVSGFSLIGYDINWIRQPPGKGLEWIGMIWGDGTTDYNSALKSRVTISKDTSKNQFSLKLSSVTAADTAVYYCARGGYYYGTSRYFDYWGQGTLVTVS
VL: DIQMTQSPSSLSASVGDRVTITCRASQDISNHLNWYQQKPGKAPKLLIYYISRFHSGVPSRFSGSGSGTDFTFTISSLQPEDIATYYCQQSKTLPYTFGQGTKLEIKR
notes: See note of m8
Consider B12, for which the Kd in assay [1] was 40 nM. In assay [2], this molecule registered a koff of 0.0016 s⁻¹.

B13: 8L2-6D5 Fab with CDR H3 mutation T104S (Fab, V domains shown)
VH: QVQLQESGPGLVKPSETLSLTCTVSGFSLIGYDINWIRQPPGKGLEWIGMIWGDGTTDYNSALKSRVTISKDTSKNQFSLKLSSVTAADTAVYYCARGGYYYGSSYYFDYWGQGTLVTVS
VL: DIQMTQSPSSLSASVGDRVTITCRASQDISNHLNWYQQKPGKAPKLLIYYISRFHSGVPSRFSGSGSGTDFTFTISSLQPEDIATYYCQQSKTLPYTFGQGTKLEIKR
notes: See note of m8; also called T1045 (so in the source)
As to B13, the dissociation constant (Kd) in assay [1] was 55 nM. This molecule showed a koff in assay [2] of 0.0022 s⁻¹.

B14: 8L2-6D5 Fab with CDR H3 mutation Y107F (Fab, V domains shown)
VH: QVQLQESGPGLVKPSETLSLTCTVSGFSLIGYDINWIRQPPGKGLEWIGMIWGDGTTDYNSALKSRVTISKDTSKNQFSLKLSSVTAADTAVYYCARGGYYYGTSYFFDYWGQGTLVTVS
VL: DIQMTQSPSSLSASVGDRVTITCRASQDISNHLNWYQQKPGKAPKLLIYYISRFHSGVPSRFSGSGSGTDFTFTISSLQPEDIATYYCQQSKTLPYTFGQGTKLEIKR
notes: See note of m8
With B14, the Kd in assay [1] was 35 nM. In assay [2], this molecule yielded a koff of 0.0014 s⁻¹.
